# Assay results published in a protein production outcome set (Wang et al. 2014).
# Assay: label from the status in PepcDB records
# 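Also: failed if final PepcDB status was selected cloned or expressed and not failed if soluble or beyond.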
row,Sequence,protein production
1,MKWIMKLRWAILAFWLAAAVVLMFIAPPMADLVREKGELKLPDGYPSSLATEMQKKHNPDDKGSAYIAVYTADHKLTGTELNDIQKSLDSIEKDKDELHVTNVLSSFNQPELKDKFLAKDGKTMVASLTVDDTDASVKSIRNALDKKMDVKGVDTYLTGNKLIQEDVVQGSEDGLHKTEGITVVFILVVLFLVFRSAVAPFIPLITVGISYLVAQSTVAFLIDIFNFPVSTYTQIFMVCIMFGIGTDYCILLMSRFKEEMGAGLNPREAVHATYRTAGKTVIYSGVAVLVAFTSLYFVQFDLYRSAVAVGVGIVVLLAALYTLVPFFMSTLGTHLFWPLNKNISHKENKIWGAAGKFTFARPWIALLIVAAITLPPILLHTGTESFNSLDEISDKYPSKKGFEIVSDSFGAGQVAPTQIFIENDDNMRTTDYIAQIEKISDDLSHLKGIDMVMSASRPAGKRVDDIYIKNQAGQVNDGVGQATDGVGEVKKGLDSASSELKKSEPALDKAVAGVGDLQKGTVATQEGINQLQTALAQIQKGIESGATGAGDLKQGVAEAKSQLATLQNGEAQIQAGYAEIQKNLQNVADQLKGFENPSSQAIDTSKLEEQFKKIGASFQAFAAAHPEVRNDPRFQKLAADIQGLETAGNELKTSAGQQMAALQAKMKELNQGIQQLATAMNQLNEQSKQISDGLSAFSTGLGQIETGLDQLEKGLNQAAVGQGQVVSKMPEVSNALTQIAAGQGALKDGFAGISGQMGQLTDGLTSGADGLGKVESGLNTANGLIDDWSKVPYASSGIYVPDALLKNADFQKVLDQYISSDGKLATINVILTKNPYSNEAMDSIDDINDQLAASMKGTKLENAKIGIGGMTSANYDTRDMSTADYHLVLVIVLASVFVTLVIVLRSLVMPIYLIASLVLTYFAALGFAEIIFMRILGYSGLTWATPFFGFVVLVALGIDYSIFLMSRFNEYNGLSVRDRMIKAMKNMGGVIFSAVIILGGTFAAMMPAGVLSLLEIATVVLIGLVLYAVVILPLFVPVMVKLFGRGNWWPFITRKGDHQENVPPKK,failed
2,MDERNVSKPAMRGHKLVLNNRTASLVTGVKDVLSFDLNEVLLETEQGMLMVKGTDLHVNRLSLEKGEVDLSGNIDSIAYSDVHAEQKQGENLFARLFR,failed
3,MSSSRSSWNTRAETGADVPVIRDIVRAAFPTPEEAALVDALRADAGAWIEGLSLVAVDDSDRPVGHALLTRCHIGDSPALCLAPVAVRPEHQNSGAGAAAVRAALAAAGRLGEHHVVVLGHPEYYPRFGFGRASAHGIRLSIDVPDEALMVLTLDAAHPLPAGTVRYAAPFGI,failed
4,MATPFWYNAALKVLKPVYRWRIKKRAENEMRYQQECRERFGPFQQPQNRHALWFHAVSVGETNAAQPLIEYYLKLGHPVLVTNTTKTGQARAKSLFLKSPYLELFQAVYLPVDQIFLLKQFFELYQPKLLALVETELWPNLIDQAQHYGVPTFLINARLSEKSAQGYARVSALSNAMLSRLTGLLAQDQSTQQRFIGLGLAREKAQVVGNIKFDIDVPLLFVEQARRLQQQWQLAGRKIMVLASTHAPEEQQLLTALKTHLMADPDLLCIVVPRHPERFDEVFQICQNLQLDTARRSLEQPIQPETQVYLADSMGELWLWYALAQTAFVGGSLNEPGGGHNILEPMALKIPVVIGPRYFNFQTIVDEFRETEAIDIVQDATQAVRQLLHYVSTPNSADQIVDHAQSILQRNKGSLARHIHVLDQYLS,failed
5,MEHKISEPNARVDVADVLRGLAVMGIIILHSIEHFNFYSFPDTVPCEWMKFTDKAIWNGLFFVFSNKAYAIFALLFGFSFYIQDNNQQRRGKDFRLRFIWRMALLFIIGQFNAAFFTGEILTMYAMLGLILPLSCRLSDRSIAIFATLLIIQPIDWCKVIYALCNPDYVAGPGLASHYFGIAFDVQKNGTFLETIRMNLWEGQLANLTWALEHGRILQTPALFLFGMLVGRKGLFLYSEQNEQHWLKALGISLICFFPLYGLNNMLPEFITRNAIRVPLQLIISSLSNLSFMVLLVSGLLITFYRIKDRRFLMRFTSYGKMSLTNYIGQSVIGSLLFYHWGFELGRFLGITYSFFFGILFVLLQMAFCSWWLSHFKHGPFEGLWKRLTWIGNNKRK,failed
6,MGKYFFSETEIKNSWDLVLTAFWQRYPNPFSSHVLTEDVLFRKVTSENLLVSRRLFTKTNRLPRWAERIFPGRRSVYIIEDSVVDLSNRSLTTMTWNVNHAKLMRVVERCVFTGEQDRPVWTHITRQAWISSGVFGLSRPIQEFGLARFRSNQLKAMKGMEHAISNLQKASSSCHGESAEKPKNVNPAAKNAQKPQQYI,failed
7,MAQRSILVGQIWHEGHSFNPILTREKDFLFLRGEAVLEEARASSTALSGIVKTAEALGYRCVPSISARARPGGAIEQKVFDNIVDEFVQAARMQDFDAICLDLHGATLAEHTLDTEGYLLSRLREVVGNDIMISLALDLHAYLTPQMVEQATIITSFRTTPHADIEETGVRAMTLLDSLSNETRPPRAIYSLIPFLTRGNDETWSGPLAEIGAAADRWRARSDVVDLSIFNVHPFLDVPGYGQVVLAYDNGSGAAIDACRDLSDMLWKARDEFQEQLMSVDKALEIARTSRQLLALGDQGDRVMGAGPGDSPEIARVALEHFPGLKVAVPVYDPQAVRTAREAGENATVRMAVGGAFTHSVAPLERDWTVRKLCRARFTNIGPYMAGTEADFGDAAVLTCDAVTVIVTTMAPNVHDPAFYEAVGVPLASQQAVVARAANHYKLSFADIARTITVDTPGLTAFKPHQFPFTQARPFYPLDIVQWSFAPLECNKVG,not failed
8,MKQKLLVTLLGLSALGASPVFAANTNVDLAEDAYIYGYSIDEAYKFFYHTAVENNYPLNEFQNRRALADDSYTAHPTINNDTLHLMGWLDVAAEPVIVSVPDMDEGRYWILHTMDMGHYTNAAFSSRTRGTKGGQFMFAAQDWQGEVPASVDEVVRVDSNLVKLMGRIMAVNDEDAKVALNYMDQWNIRTLSEYLGKNGPKPVQRTYPDPKKSTWLERVNFVLCDGSMGNADKQWLDKYQSIGVEPCKTDFTPEQLKLAKVGEKKGMEHLVELAPKMTDARTLLGTRDTLGDAPRDIFAEGTYLGQWGLPPIEASYRKSDFDSIGQKLDGSKHDYVMRFKAPNVSEFWSVTIYGNDNRLMAKNDLNRHSRGDRTMKADKDGYYTIYMSANEKGRADDPNFLPVPEKPFYAIMRFYGADDAIQSGEYQMPEIKVVKLEHHHHHH,not failed
9,MSIWSPLLFNAEGKKQGYDCRYLHKLTDQGNKLSDSGLPVIFTLAHLCAMAGVSFSLIHSCVSRKYDPYRSFTIKKRSGGYRQIVVPEPELMHLQRWINEFILKRAKVHSCAAAYISGSDIKMNASKHLGANWLIKLDIQRFFESISELQVYYIFHRLGYPKLLSFEMARICTRVDTQSNRHFRPRWNNRIHHFEILEYCDSRVGYLPQGAPTSPSLSNLTCRKLDKEIYDLSCRSDCRYTRYADDFAFSFIDLDREKASNFVNQVSRIISSYGFRKNARKTKIIPPGSKKIITGLVLGNGKVHLQKELKDYIRQNIYFATKYGVDEHCKKRGFVSIDGFYNHLEGIVNFALFIEPDFGEKAFEEFRAIKWPSLIVGLHA,failed
10,KYANGTFFTYRPEAWDWMYTVAEEFDTIVAGLFGLITGGLLSVDSIAGEFENGTISRLYSLPINRWEIYFGKVIEKI,failed
11,MMSRKRWLALIAAAMLFVASAAISLVSSPAVDVDEWVGTGTSYKQTIVETGTDFGKSIAILELSGVIQDTGSAPSLLNTGVYHHRDFLKQLEKAGEDPNIAGIILQVNTPGGGVLESAEIHKQVEEIVQDSEKPVYVSMGNMAASGGYYISAPATKIYAHPQTITGSIGVIMQSIDISGLAENLGIEFNTFKSGPYKDILSQTREVTDEEEDILQTLVDEMYDEFVRVIVDGRGMSETEVRELADGRIYTGSQAVATGLVDELGGLDDVIESMKEDLGADYNVIRYEHSLGLYDFFSMSTNRLLSPSYELQSIERLLNQSNTPTLQYLYAELEHHHHHH,not failed
12,MSKSTAEIRQAFLDFFHSKGHQVVASSSLVPNNDPTLLFTNAGMNQFKDVFLGLDKRNYSRATTSQRCVRAGGKHNDLENVGYTARHHTFFEMLGNFSFGDYFKHDAIQFAWELLTGENWFALPKERLWVTVYETDDEAYEIWEKEVGIPRERIIRIGDNKGAPYASDNFWQMGDTGPCGPCTEIFYDHGDHIWGGPPGSPEEDGDRYIEIWNIVFMQFNRQADGTMEPLPKPSVDTGMGLERIAAVLQHVNSNYDIDLFRTLIEAVAKVTGATDLGNKSLRVIADHIRSCAFLVADGVLPSNENRGYVLRRIIRRAVRHGNMLGAKETFFYKLVGPLIEVMGSAGEELKRQQAQVEQVLKTEEEQFARTLERGLALLDEELAKLQGDTLDGETAFRLYDTYGFPVDLTADVCRERNIKVDEAGFEAAMEEQRRRAREASGFGADYNAMIRVDSASEFKGYDHLELNGKVTALFVDGKAVEAINAGQEAVVVLDQTPFYAESGGQVGDKGELKGAGFTFAVDDTQKYGQAIGHLGKLSAGALKVGDAVQADVDEARRARIRLNHSATHLMHAALRQVLGTHVAQKGSLVSDKVLRFDFSHNEAMKPSEIREVEDLVNAQIRRNLPIETNIMDLDAAKAKGAMALFGEKYDERVRVLSMGDFSTELCGGTHASRTGDIGLFRIISESGTAAGIRRIEAVTGEGAMATVHAQSDRLNDIAHLLKGDSQNLGDKVRAVLERTRQLEKELQQLKDQAAAQESANLSSKAVDLNGVKLLVSELAGIEPKMLRTMVDDLKNQLGSTVIVLATVVEGKVSLIAGVSKDVTDRVKAGELIGMVAQQVGGKGGGRPDMAQAGGTDAAALPAALASVQGWVSAKLQ,failed
13,MPTPAYMSINGETQGHITKDTYSADSVGNTWQEAHVDEFLVQELDHVLTVPRDPQSGQPTGQRVHRPLVVTKVQDRSSPLLFNALVSGEKLPECLIRFYRTSVQGKQEHYYSIKLIDALLVDIQTRMNHCQDAATADRVTEEVLKFTYRAIEVTHENCGTAGNDDWRAPREA,failed
14,IPLGIYEKALPAGECWLERLKLAKALGFDFVEMSLDETDARLARLDWSPEQRLALVKAVAETGVRVPSMCLSAHRRFPLGSEDDAVRHQGLEIMRKAIQLAQDVGIRVIQLAGYDVYYQQANDETRRRFRDGLKQSVEMASRAQVTLAMEIMDYPLMNSISKALGYAHYLNNPWFQLYPDIGNLSAWDNDVQMELKAGSGHIVAVHVKDTKPGVFKNVPFGEGVVDFERCFETLKQTGYCGPYLIEMWSETSADPLAEVAKARDWVKARMARAGLM,not failed
15,DDLEVGKNIDESAYSGIYENNAYLRDGKSNLVSKVVELHGETYATTVKMGLSKTPNTATSAKVKIDAAYLETYNKAHNTDFALYPQDLVTFANEGILTVNANTKSAEVEMTIRAGEGLQEDKTYAIPVAISDQSSDITIKDEDAKHCIYLVKDMRNAGDAYKGEGVMQGYLFFEVNDVNPLNTLSFQLENGKLLWDVVVLFAANINYDAEAGRPRVQCNPNVQYLLDNNETLLQPLRRRGVKVLLGLLGNHDITGLAQLSEQGAKDFAREVAQYCKAYNLDGVNYDDEYSNSPDLSNPSLTNPSTAAAARLCYETKQAMPDKLVTVFDWGQMYGVATVDGVDAKEWIDIVVANYGSAAYPIGQMTKKQCSGISMEFNLGGGGSLSASKAQSMIDGGYGWFMGFAPSPAKYGSVFSRLQGGGEVLYGSNVAAPTIFYKKNDPTPYKYPDDL,not failed
16,MITLKQALSLSQDELETLKNEIDAKVRASDLNAYIKAPSLNGASAKGVPILIKDNISVKGWEITCSSKILEGYVAPYHASVMENLHQNSMAGFGLSNMDEFAMGSTTESSCYGITKNPRDKNRVPGGSSGGSAAAVAGGLAVAALGSDTGGSIRQPASYCGCVGLKPTYGRVSRYGLIAYCSSFDQIGPITQNVEDASILFDAISGYDSKDSTSANLKPTQTFKNLNRDKRFKIAVLMDHIKDASNEVQLAYENTLKALKEMGHEIVEKKMLDSHYQISIYYIISMAEASSNLARFDGVRYGRRAQNIKDLKELYLKSRSEGFGDEVKRRIMLGNFVLSSGYYDAYYLKAQQMRLIIKEQYNKIFEEVDLIFTPVAPTSAHLFNYHASPLEMYLSDIYTIGANLSGLPALSLPVAKDPLGLPIGMQFIAKAFDEQSLLDVSYALEQELDLKLD,failed
